The DeepSol protein solubility set

Assay: soluble on expression in E. coli; label from the status in PepcDB or PDB records

Q: For “MSIKQWPEGERPREKLLERGAAALSDAELLAILLRVGTRGMSAVDLARYLLQEFGSLGRLMSAEVGKLSAYKGMGTASFTQFAVVREIGRRILAEELQESIVLSDPDTVADYLRFHLGQEKVEVSVALLLNRQNQLIAVRELSRGTVAENTIYIREIVKLALDEYADSLIIAHNHPGGSPEPSQEDIMFTRRLAQAMSLVDVSLLDHFIVTSQSVCSFRQLGLMP”, which “soluble on expression in E. coli” value is on record?
A: not soluble

Q: Which “soluble on expression in E. coli” value does the source give for “MGHHHHHHSHMPFKLFKKLTISSVVTSATVNWATLASRTVFILPKRVLPYLRSVARLTRVVIAMDRYGGLLGGFLRAVPPVQKPLSLTDGNKFREGIMSEVGKYVSTLVDPRNMMLDSFHHLKHNKSLQGSFLVHAGTVSDQEVCGTPMFCYKDGLSNPEIDRLLTPISLTRLTVPNNENSDVFRIGNIIYSEDSGLFDIIPTLRTRLMERNLHEGLVFVGPLIKNINSSFVNKITTAIKGDTVLNESLSHGLVLKLPVEQFMDFETTNTFHYTGRLPMTHRSYIYYALGYVITADGTQSLLQKFFRTPIEGPEFTRLVRDYFAGEIRNFFLGDNDFGQGNFLMFGAVCRCGYFPEDSLLTRTRVSIKGGGLSLIEIPDFTVSRGPWQFI” here?
A: not soluble

Q: Which “soluble on expression in E. coli” value does the source give for “MAFVPPQAGYDRAITVFSPDGRLFQVNYAREAVKRGATAVGVKCNEGVVLAVEKRITSRLIEPESYEKIFQIDDHIAAASSGIIADARVLVNRARLEAQIHRLTYGEPAPLAVIVKKICDLKQMHTQYGGVRPFGAALLMAGVNEKPELYETDPSGAYFAWKAVAIGSGRNTAMAIFEEKYKDDMSLEEAIKLAIFALAKTMEKPSAENIEVAIITVKDKKFRKLSREEIEKYLNEVMKEVEEEEVKEKEEDYSELDSHY” here?
A: soluble

Q: With “MADQKEASEAAKNREIKISSSDDEIFLVPRNVIRLSNTLNTLLVDLGLDDDEGTNAEPIPVQNVTASILKKVINWCTKHQSDPIPTEDSEKKTDGSIQDWDKKFLDIDQGTLFELILAANYLDIKGLLDVACQSVANMIKGKSPDEIRRAFNIKDDFTAEEREQIRKENAWCDD” as the sequence, how does the “soluble on expression in E. coli” value read?
A: soluble

Q: For “MIYAGILAGGTGTRMGISNLPKQFLELGDRPILIHTIEKFVLEPSIEKIVVGVHGDWVSHAEDLVDKYLPLYKERIIITKGGADRNTSIKNIIEAIDAYRPLTPEDIVVTHDSVRPFITLRMIQDNIQLAQNHDAVDTVVEAVDTIVESTNGQFITDIPNRAHLYQGQTPQTFRCKDFMDLYGSLSDEEKEILTDACKIFVIKGKDVALAKGEYSNLKITTVTDLKIAKSMIEKD”, which “soluble on expression in E. coli” value is on record?
A: soluble

Q: With “YTPPGRLGDESSGPRTDPRFSPAMVEALATFGLDAVAAAPPVSASDDLPTVLAAVGASHDGFQAVYDSIALDLPTDRDDVETSTETILGVDGNEITLHVFRPAGVEGVLPGLVYTHGGGMTILTTDNRVHRRWCTDLAAAGSVVVMVDFRNAWTAEGHHPFPSGVEDCLAAVLWVDEHRESLGLSGVVVQGESGGGNLAIATTLLAKRRGRLDAIDGVYASIPYISGGYAWDHERRLTELPSLVENDGYFIENGGMALLVRAYDPTGEHAEDPIAWPYFASEDELRGLPPFVVAVNELDPLRDEGIAFARRLARAGVDVAARVNIGLVHGADVIFRHWLPAALESTVRDVAGFAADRARLR” as the sequence, how does the “soluble on expression in E. coli” value read?
A: soluble

Q: With “MGSDKIHHHHHHMKLKNDELTVEFKPEGATISSIRDRDGVEYLWQGNPEYWGGQAPVLFPICGSLRNDGATFQVGEKTISGSMPRHGIVRKRTFDLVKHTENEIQFRILSDDEMLKQYPFPFELQLTYRLDGKRLETEYAIRYLGELDAMPFFIGGHPGFNCPLLEDEAFDDYYLEFELEEDCTIPESFPETGLLDFSKRQPMLSKTRILDLNYELFQHDALTFDNLKSRKVALKTKNHQKGLKVSFEDFPFLVVWTTTNKGPFIALEPWSGLSTSLTETDNFIDKTHVTYVEKGEVSRKAFTIEIC” as the sequence, how does the “soluble on expression in E. coli” value read?
A: not soluble

Q: With “MKKIIFTFLILGNVYNFAAQKTLRTVEKCRVTSKGTTKDGKRFANCISLQSGKTFNFTGLVDQTYYKFSKGTIFKVYFYGNGNRNLTLETFDYIR” as the sequence, how does the “soluble on expression in E. coli” value read?
A: not soluble

Q: For “MGSDKIHHHHHHMKPNIITVILAAGASSRFHGAKMLAKVKGNQSLLARSIVSLNKVTATAGIKAPAVVLGAHLNDEIMAITATSHQIINPDWQQGLSSSVKHASQYAIEQQADALLLVLADQVAIDVDDYLHLIERYQQNGLTSCAFYRQDVGVPAIFLAKDFAVLMSIDGDKGAKSILKQHDKNNSLNIISMEQAQFDIDTPADLARWLDNKD”, which “soluble on expression in E. coli” value is on record?
A: not soluble
